The nature of this data set: label from the status in PepcDB records.
As to “MTSSPELARAVAATLARHVTDVVICPGSRNSPLSLELIARDDIRVHTRIDERSAAFLALGLARSSKRHVAVVTTSGTAVANCAPAMIEAAYSHTPLIMVSADRPERLHGTGANQTIEQRGIFNVVDTDHVVDITDLNSISFARNVIHINVALDVPLVDVLPEVGDPVERVREVIEV”, the protein production entry is recorded as “failed”.
The result for “MSDHRPAARPWANRRRTIMSTTTLPGSTVATLTVTTPSDREVQITRIFDASRPMVFDCWTIPELLKGWLHGPDGWRLAICEIDLRVGGATRYVWQHRDGRSMGMSGAYREIVRPARIVATELFDEDWTGGETVGTVVFTEQAGKTLLTQTVLYASQAARDGALGTGMTRGMGESYAQLDAYLISLQDAAKGAA” reads “failed”; that for “MIGALRHACPGSRAAAFVLSGLQTMTNEVKSAVRVIQILEYFDTVRREAGVLEISRALGFPASSTAGILRSLQRLSYLVQDEQRLYRPTPRVTLLGSWIDPLLAHDGPLMALMSHLSKATGETIILALQVDAGARYIHIIPSTQRVRLHVNVGDVRPLLTSGTGRLFVSTMEPDQVRRAVFRHNALRGANEPEINLSTVTRDATQIRKNGYATSLDRLVPGVGIIAALLPEREGTRPMAVAVGGPSVTIRARTAELASLLREGIGQYLPHLGNAGDQS”, “failed”.
For “MLRCSHSKGVNYINFSATGKLLVSVGVDPEHTITVWRWQEGTKVASRGGHLERIFVVEFRPDSDTQFVSVGVKHMKFWTLAGSALLYKKGVIGSMEAARMQTMLSVAFGANNLTFTGAINGDVYVWKEHFLIRLVAKAHTGPVFTMYTTLRDGLIVTGGKERPTKEGGAVKLWDQEMKRCRAFQLETGQLVECVRSVCRGKGKILVGTKDGEIIEVGEKSAASNILIDGHMEGEIWGLATHPSKDMFISASNDGTARIWDLADKKLLNKVNLGHAARCAAYSPDGEMVAIGMKNGEFIILLVNSLKVWGKKRDRKSAIQDIRISPDNRFLAVGSSEHTVDFYDLTQGTSLNRIGYCKDIPSFVIQMDFSADSKYIQVSTGAYKRQVHEVPLGKQVTEAMVIEKITWASWTSVLGDEVIGIWPRNADKADVNCACVTHDGLNIVTGDDFGLVKLFDFPCTEKFAKHKRYFGHSAHVTNIRFSYDDKYVVSTGGDDCSVFVWRCL” the value was “failed”.
The result for “MPVTEKDLAEDAPWKKIQQNTFTRWCNEHLKCVNKRIGNLQTDLSDGLRLIALLEVLSQKRMYRKYHQRPTFRQMQLENVSVALEFLDRESIKLVSIDSKAIVDGNLKLILGLVWTLILHYSISMPVWEDEGDDDAKKQTPKQRLLGWIQNKIPYLPITNFNQNWQDGKALGALVDSCAPGLCPDWESWDPQKPVDNAREAMQQADDWLGVPQVITPEEIIHPDVDEHSVMTYLSQF” reads “failed”; that for “MRGDKFTLRDSLCLKVDGGRGVCLKGDGGRGVCLKGDGGRGVCLKGDSCDFNHSYTLPRREEVEKHQIELFKEEILSYMRKWISPHEFLQKVLDFNLKSLLVDLAATFNVRYPERQRLLV”, “failed”; that for “MSSCCAAEAKNASERKLLWIVLILNFSMFVIEFIAGWLANSSGLLADSLDMLADAAVYSLSLYAVGKSLLYKGRAALANGYLQLSLGLLVLVDVARRIWLGSEPQSELMLSIGFMALIVNMICFVLLYQFRQGDVNLKASWICSRNDMLANIGIIISAVLVGQFDAAWPDWVIGSVIAGIVIHSSLAIINEAKVSIQSDAVADKNRT”, “failed”.
Turning to “MIFYKSKRLAFFLTSDIVLILLSVYLAFSLRFSGDIPSIFYHGMMVSAIILLVLKLSFLFVFRIYKVAWRFFSLNEARKIFIALLLAEFCFFLIFYFFSDFFNPFPRSAIVIDFVLSYMFIGTLRISKRMLVDFKPSRMKEEETPCIVVGATSKALHLLKGAKEGSLGLFPVGVVDARKELIGTYCDKFIVEEKEKIKSYVEQGVKTAIIALRLEQEELKKLFEELVAYGICDVKIFSFTRNEARDISIEDLLARKPKDLDDSAVAAFLKDKVVLVSGAGGTIGSELCKQCIKFGAKHLIMVDHSEYNLYKINDDLNLYKEKITPILLSILDKQSLDEVLKTYKPELILHAAAYKHVPLCEQNPHSAVINNILGTKILCDSAKENKVAKFVMISTDKAVRPTNIMGCTKRVCELYTLSMSDENFEVACVRFGNVLGSSGSVIPKFKAQIANNEPLTLTHPDIVRYFMLVAEAVQLVLQAGAIAKGGELFVLDMGKPVKIIDLAKKMLLLSNRNDLEIKITGLRKGEKLYEELLIDENDAKTQYESIFVAKNEKVDLDWLNKEIENLQICEDISEALLKIVPEFKHNKEGV”, the protein production result is “failed”.
In the case of “MTKLGYVMTKSSAKNFKIYINGSAKGFKNIIISGAKAWNPSPYLNTVSIGNDVRPNYTVSSSGTNKGSVLAVCNTTYYKSNKLISKNEITLYKGFRSLSTNHKIETIVHEFGHGFGLGHVKTKNAIMLDKGFINKTKPQTDDFNGIKALYKLEHHHHHH”, the protein production result was “not failed”.
The result for “DIGGITGSFYLNTNALPTNADKIKSLILEVIEQCQIKSDDVVLYGCSKGGTAAVYHGLTNNYKIVAV” reads “failed”; that for “MGEKELIRVGVVGTGYMGENHVRIYSEMEDVRLIGISDPNSSRVKELAARYETLPFSDHKKMFGKTNLDAISIAAPTTLHCPIVLDALEAGVDVLVEKPIADSVENATAMIESAEEMDRHLMVGHIERFNPAVLKLKEVVDSGVLGKIVSV”, “failed”.
For “MVCVDFIDQKVYSEAEGLFVSDLDLGIKGLIRARYPFALDSDFISYGNLSHYCMNYLDEIVQRANQKNEKIKYNVTTLMKEEEKPFNVEERLNKQATIGQRIADDVARFGGSWTFIIVFVSIMAIWMLVNIMKPFGIQFDPYPFILLNLALSTIAAIQAPLIMMSQNRAADYDRLQARNDFNVNKTSELEIRLLHEKIDHMVQQDQFELLEIQKLQTEMLVSLGNQLAQLKQLQK” the value was “failed”; for “MATKLVIAIVQDKDANYLSDQFIDQNVRATKLSTTGGFLQSGNTTFMIGIEEERVPEVLEIIKKASHTREEFMTPSVNMDVNMEGTTAYPIKVQVGGATVLVLPVDQFERF”, “not failed”; for “MADVGSLGTRLLRIVLGLCALVLVLLALYVSLGRQLVPLVAEYRQQLEDEAGKQLGIPVRIAELTGSWRGFEPLVVARDIQVGDGEQSLRLARVRLAPDLLGSLLARQVRIGSLELEGLKLTLREGEDGQWSLDGLPHSDKPSDPRKLLQFLLQTQRISLLDSQLEVAPRGSAALSLSAVGATLRSSSVGGQSLDARLQLPDGQPLALHAEGRIDSEDWPRSSARFYLSLPQSDWAQWLPAGLTQEWTIVRAKAGGDFWFDWRDGKAQRLVARLLAPQLKASYAARKPVEINDLGMNLFFDREAQGWKVRVGDLAANFGEQRWGEVELLLRRDQQNNEPHWKLQADRVDLTPLVPAIEALAPLPDAAAEWVAGLKPKGILHNLNADFWPQREVPERVSYATNLEKVGISAFHEVPAVENVSGTLTGTLAGGQLDASAQDFMLHLAKVFPEPWRYREARTRMFWSLDDRAFTLGSHLMRVEGEEGSLAGDMLIRLMRDPGAEDYMDLQVGLSDGDARFTAKYLPTQLPGMNKSLANWLKTAIRSGHVEQGYFQWQGSLNRGAAAEAHVMNLYFKVRDGELAYQPGWPALSKTVGEVFVEDSGVRVLASSGNLLNSRVSDVKVDIPLGRPGQTPHLYVDGAVDSNLKDGIKLLQEAPIPTRKIFAGWEGDGPLQGHLTLDIPLDHDEAGKTGVVVDFSTVGATLKMPSPKLDMSEVKGDFRFDLAKGLSAPAVQARVLGSEVRGRIVAEGRGDARTRLLLNGQVAVKSLSDWLGAGQRPLPVSGRLPFQLNLLLDGKDSQLQIDSDLKGAVVDLPAPFGKTAAQARPTQWRMTLDGAERRYWARYDGLASLAYAAPADKPLNGRGALRLGGDPALLPSAQGLRVRGRLAELDWDAWQATLKRYGNGDQAASSAAGLLRGADLRIDSFKGFGQELKNLTVDLARQERAWQLVLVSDLASGRLVLPDARGAPIVVDLDRLNLPKSTLPDENKVEDSDPLAAVDPRSLPAVDVKIGQVALGGQPLGAWSLKVRPGSNGVAFNDLDLDLRGLHVNGSLRWDGSPGNTRSTYQGRIEGKNLADVLKAWNFAPSATSERFRMDINGQWPGSPAYMALKRFSGSMDASLRKGQFVEVEGSAQALRVFGLLNFNAINRRLRLDFSDILGKGLSYDRVKGVLSATDGVYVTREPLKLEGPSSNLELNGTLDLAHDRIDAKLLVTLPLTNNLTLAALIVGGPAVGGAVFVVDKLLGDRVSRFASVQYSVKGPWQDPKISFDKPFEKPR”, “failed”.
Consider “ASETQQWKTLEDTRSALMGVYGLTRAALADNNTHWICGDLRKGDFTVYKRSDLQAVSDNELNKPYDLLKKVSNWRRFYAVINAASVFMEKAPRTVELDRSYSEQNLKYDIAQVRALRAFAYFYMVRIWGDVPLVTYSYDNGTFPSMPRTDAQTVLSYAKAELLTAIEDLPYQYGTQTNLYYGSYGAQWQGKLFNKLSAYSVLAHICAWQGNYAEAETYSAFIIDHASEINAKYTSIADLTSETGLFYSNASVKGSRILGFNFAHNDNEATQSGHLEQLTLAYPLVQKSYPEIYISKDSLFSIFTNFDDLRFGIIDTIKYSSYYVQNLNEETPVFSKIKIIQDGSAKDNDFGVFGSSIVFTRLEDITLLRAEALCALNRSTEAVSYLNMIRTNRGLREVSFKKDFGNNRESLIAEIFEERRRELMGEGWRWYDLVRRQKLMKDNEAFLRLISSGGIYWPVSEDIITANSQIEQNEFWK”, for which the protein production result is listed as “not failed”.
For “MHSIQSPRLRQHFPRRSPKKLALKKSGGLGHRAKASHCYRIVLYSHDTMGLGHKRRNLLIAQTLQKSRLPVEILVITGIEEGNEALTAAGINYVNLPSLRKNGDGSYSGRDLDLPLEKLIAWRSQLILKTIQQFQPDVLMVDNVPRGVERELDPSLKYLRQRPESLCVLGLRDILDQPGTVQRDWGQADNERAIRRYYDAVWVYGDPQVYDLRHEYGFAPDVTAKMRPLGYFHQGDRLQHLTKPWQETLSNWKLPSRFILGAVGGGQDGETLAIAFAQIPFTADLPGVLLTGPFMPESVRQKLKVSAQNNPDLTILPYFSEPTMLMWAAERVITMGGYNTTCEILSFQKPALIIPRIKPRQEQWLRATRLKQLGLVDVLHPDQVNAQNLTAWLHSAPTNQYNKPVLNLRATQQLPLVLGQLLSTRNCFMSQAC” the value was “failed”; for “MSKIWSKEETLWSFALYGTAVGAGTLFLPIQLGSAGAIVLFITALVAWPLTYWPHKALSQFILSANIAPGTGITGAVNHYYGKKIGNLITGLYFLAFFVVVLIYAVAITNSLAEQVAHRTPMTPGLRALLSLGVVLVLNLIFLMGRQVTIKVMGFLVFPLIACFLFLSLYLIRDWHPEHLTSQMQFSPQTLHQVWISIPVMVFAFSHTPIISTFAIDQQEKHGDLAMGKCKKIMKVAYTIICASVLFFVFSCLLAIPATYIETARDQGVTILSALSMVPGAPGWLAVTGIIVAVVAMSKSFLGTYFGVIEGASEIVKSSLGLLGVRKSRAFNRAMSILLVSAFTFAVCFINPNAISMIYAISGPLIAMILFIMPTLSTWLIPALKPYRSVGNAITLVVGLLCVSVMFFG”, “failed”.
For “MTIPKLSPSPESYPESLTFAELGLNAALRKALPTRLKHPTRVQQLAIPAILAGRDLLALSQTGSGKTFAFGLPLLQILWQQIAVQTTAKSVPAAKPLALVLVPTRELALQVSEALHALASQLSTSAPLNIQLLCGGVALEQQLADLSAKPQLVVATPGRLLDLCTQSHISLDAIKHLVLDEADRLLEMGFWPDMQKLMAMMPKRKQTLLFSATLPEALDSLAGKLLTNDPLKVEASTRNAVVGEIEEQLYLVNKGSKAQALIALLKQYQWPQVLVFISARDDADAIAKRLVKAGINAAALHGEKDQTVRSQTLADFKADRIQVLVATDLMARGIHVDALPVVINLDLPTSAPVYVHRIGRTARAGAKGLAISLVCHGEMPNLTAIRNLTARALPLVFLADFPVTDKPSEKIIDGAENKVIPKRPPRDKQANRRSINKHSVKAFKGKR” the value was “failed”.

For the origin of these results see a protein production outcome set (Wang et al. 2014).
